Measurements: patent publication US20180162952A1
Several values for one entry are separate records, joined by “and”; a condition that tells them apart may be missing. Identical values can stand only once.

Tests used:
[1] = target: human PTK7 on non-engineered cells (human) (UniProt Q13308); experiment: cell-based or functional assay
[2] = target: human PTK7 on non-engineered cells (human), Q13308; experiment: cell-based or functional assay

B1: SC6.2.35 (antibody, V domains shown)
VH: QVQMQQSGAELMKPGASVKLSCKATGYTFTGYWIEWVKQRPGHGLEWIGEILPGSGRSNSNEKFKGKATFTADTSSNTAYMQLSSLTTEDSAIYYCARGKLSWGQGTLVTVSA
VL: DIVLTQSPASLAVSLGQRATISCRASESVDSFGNSFMHWYQQKPGQPPKLLIYAASNLGSGVPARFSGSGSGTDFSLNIHPVEEDDSAMYFCQQSKEVPRTFGGGSRLEIKR
**Q.** Which results are given for B1?
**A.** EC50, saporin (Fab-ZAP) cell killing, G401 Cells [1]: 1.1 pM; EC50, saporin (Fab-ZAP) cell killing, HEK293T Cells [1]: 0.45 pM; elimination of BR13 and BR64 breast NTX tumor cells, antibody at 0.2 nM with Fab-ZAP [1]: 70% and 80%

B2: SC6.21 (antibody, V domains shown)
VH: SDVQLQESGPGLVKPSQTLSLTCSVPDYSITSDYHWHWIRQFPGNKLEWMGYISSRGSTNYNPSLKNRISITHDTSENQFFLKLTSVTTEDSATYYCAGLSQLALDYWGQGTTLTVSS
VL: DIVMSQSPSSLAVSVGEKVTLSCKSSQSLLYSSTQNNYLAWYQQTPGQSPKLLIYWASTRESGVPDRFTGSGSGTDFTLTISSVKAEDLAVYYCQQYYSYPWTFGGGTKLEIK
**Q.** B2 was tested. Which EC50, saporin (Fab-ZAP) cell killing, G401 Cells [2] did it give?
**A.** 200 pM

B3: SC6.23 (antibody, V domains shown)
VH: QVTLKESGPGILKPSQTLSLTCSFSGFSLSTSNMGVGWIRQPSGKGLEWLAHIWWDDDKYYNPSLKSQLTISKDTSRNQVFLKITSVDTEDTATYYCVRSNYGYAWFAYWGQGTLVTVSA
VL: DIKMTQSPSSMYASLGERVTITCKASQDIYPYLNWFQQKPGKSPKTLIYRTNRLLDGVPSRFSGSGSGQDYSLTISSLDYEDMGIYYCLQYDEFPLTFGAGTKLELK
**Q.** B3 was tested. Which EC50, saporin (Fab-ZAP) cell killing, G401 Cells [2] did it give?
**A.** 2.6 pM

**Q.** And the EC50, saporin (Fab-ZAP) cell killing, HEK293T Cells [2]?
**A.** 3 pM

B4: SC6.24 (antibody, V domains shown)
VH: QVQLQQSGPEVVRPGVSVKISCKGSGYTFTDYAVHWVKLSHAKSLEWIGVISTYNDYTYNNQDFKGKATMTVDKSSSTAYMELARLTSEDSAIYYCARGNSYFYALDYWGQGTSVTVSS
VL: DIVLTQSPASLAVSLGQRATISCRASESVDSYGKSFMHWYQQRPGQPPKLLIYRASNLESGIPARFSGSGSRTDFTLTINPVEADDVATYYCQQSNEDPWTFGGGTKLEIK
**Q.** Which results are given for B4?
**A.** EC50, saporin (Fab-ZAP) cell killing, G401 Cells [2]: 6.7 pM; EC50, saporin (Fab-ZAP) cell killing, HEK293T Cells [2]: 11 pM

B5: SC6.41 (antibody, V domains shown)
VH: EVQLQQSGAESVRSGASVKLSCTASGLNIKDYYMHWVNLRPEQGLEWIGWIDPENGDTEYAPEFQGKATMTADTSSNTAYLQLSSLTSEDTAVYYCNACNYGSAYGYWGQGTTLTVSS
VL: DIVLTQATPSVPVTPGESVSISCRSSKSLLHTKGDTYLYWFLQRPGQSPQLLIYRMSNLASGVPDRFSGSGSGTVFTLRISRVEAEDVGVYYCMQHLEYPFTFGSGTKLEIKR
**Q.** B5 was tested. Which EC50, saporin (Fab-ZAP) cell killing, G401 Cells [2] did it give?
**A.** 2.6 pM

**Q.** And the EC50, saporin (Fab-ZAP) cell killing, HEK293T Cells [2]?
**A.** 5.7 pM

B6: SC6.58 (antibody, V domains shown)
VH: EVKLLESGGGLVQPGGSLKLSCAASGFDFSRYWMSWVRQAPGKGLEWIGDLNPDSSAINYTPSLKDKFIISRDNAKNTLYLQMSKVRSEDTALYYCTLITTLVPYTMDFWGQGTSVTVSS
VL: ETTVTQSPASLSMAIGEKVTIRCITNTDIDDDMNWYQQKPGEPPKLLISEGNGLRPGVPSRFSSSGYGTDFVFTIENMLSEDVADYYCLQSDNLPLTFGSGTKLEIK
**Q.** Which EC50, saporin (Fab-ZAP) cell killing, G401 Cells [2] does the source give for B6 here?
**A.** 35.1 pM

**Q.** And the EC50, saporin (Fab-ZAP) cell killing, HEK293T Cells [2]?
**A.** 86.8 pM
